Substrate in data set [1]: O=C1O[C@H](COP(=O)(O)O)[C@H](O)[C@H]1O
As to the kind of experiment: purified protein. The note with it: 2.5 mM Bicine pH 8.3, 0.2 M NaCl, zinc enzyme.

Substrate in data set [2]: O=C1O[C@@H](COP(=O)(O)O)[C@H](O)[C@H]1O
The data set can be described thus: purified protein. The following applies: 2.5 mM Bicine pH 8.3, 0.2 M NaCl, zinc enzyme.

B1: Ms0025 (MS53_0025) (Mycoplasmopsis synoviae 53) (protein)
chain: MENKFARTVLGDIPVEKLGITDCHDHFIKNGGPEVEEHIDFLMLNVDASIKEFKEFIDRGGSTIVTMDPPNVGRDVLKTLEIANAVKNLGGNVIMSTGFHKAKFYDKYSSWLAVVPTEEIVKMCVAEIEEGMDEYNYNGPVVKRSKAKAGIIKAGTGYGAIDRLELKALEVAARTSILTGCPILVHTQLGTMALEVAKHLIGFGANPDKIQISHLNKNPDKYYYEKVIKETGVTLCFDGPDRVKYYPDSLLAENIKYLVDKGLQKHITLSLDAGRILYQRNYGLTKGKQTFGLAYLFDRFLPLLKQVGVSKEAIFDILVNNPKRVLAFDEKRNFDPLKVSKEVLELKKELNLN
A word on the Km: it is the substrate concentration at which the rate is half of its maximum. By kcat is commonly meant the maximal rate divided by the concentration of active sites. For orientation: kcat/Km means the second-order rate constant that governs catalysis at low substrate concentration. Regarding B1, in data set [1], the Michaelis constant (Km) is on record as 0.50 ± 0.04 mM, the kcat came to 23.4 ± 0.8 s⁻¹ and the kcat/Km worked out at 47000 ± 4000 M⁻¹ s⁻¹. Further, the Km in data set [2] is on record as 0.30 ± 0.02 mM.

B2: Mag6390 (MAG_6390) (Mycoplasmopsis agalactiae PG2) (protein)
chain: MAKDKFVRTVLGDVPAESIGITDCHDHLIKNGGPEMHEHPDFLMIDVEAAKKEVQEYVDHGGKTIVTMDPPNVGRDVYRMLEIAEAFKGKANIVMSTGFHKAAFYDKYSSWLACVPTDDIVKMMVAEVEEGMDEYNYNGPVVKRSKAKAGIIKAGTGYAAIDRLELKALEVAARTSITTGCPILVHTQLGTMALEVAQHLIGFGANPRKIQLSHLNKNPDRYYYEKIIKETGVTICFDGPDRVKYYPDSLLADHIKYLVDKGLQKHITLSLDAGRILYQRNYGLTKGKETFGLSYLFERFIPLLKQVGVSQEAIDDILINNPREILAFDEPRVYDASKVSSEVVQLKKDLKLL
In the case of B2, the Km in data set [1] stood at 0.9 ± 0.1 mM. For the same protein, in data set [2], the Km turned out to be 0.66 ± 0.06 mM, the kcat turned out to be 8.7 ± 0.3 s⁻¹ and the kcat/Km amounted to 13000 ± 1000 M⁻¹ s⁻¹.
